Positions count from the first letter of the chain named. Each block holds one binder with its values, some of them ahead of it.
Tests used:
[1] = molecular target: T1, human LPAM-1-Fc (alpha4-Fc/beta7-Fc heterodimer) (human); experiment: SPR (BIACORE) as in Example 12, polypeptide purified from E. coli as analyte on captured LPAM-1-Fc; KD drawn as bars (Example 20)
T1 construct: Soluble heterodimer from CHO cells, Protein A purified

[2] = molecular target: T2, human VLA4-Fc (alpha4-Fc/beta1-Fc heterodimer) (human); experiment: SPR (BIACORE) as in Example 12, polypeptide purified from E. coli as analyte on captured VLA4-Fc; the black bar is broken and the value is written over it (Example 20)
T2 construct: Soluble heterodimer from CHO cells, Protein A purified; also called VLA-Fc

[3] = molecular target: T2, human VLA4-Fc (alpha4-Fc/beta1-Fc …); experiment: SPR (BIACORE), VLA4-Fc captured by anti-human IgG, 1 mM MnCl2, 1:1 Langmuir
Description: (§1) The kinetic 2D-VCAM-1 assay measures binding kinetics of a dimeric ligand (e.g., VLA-Fc fusion protein or LPAM-1-Fc fusion protein) coated to sensor chips and monomeric analyte (e.g., 2D-VCAM-1 variant polypeptides) in the mobile phase. Goat anti-human IgG antibody (Jackson ImmunoResearch, Catalog No. 105-005-098) was immobilized on CM-5 sensor chips (GE Healthcare, Catalog No. BR-1000-14) according to the manufacturer's protocol. Antibody was diluted to 30 μg/ml in immobilization buffer (10 mM sodium acetate, pH 5.0 (GE Healthcare, Catalog No. BR-1003-51)). […] Un-reacted sites were quenched with 35 μl of 1 M ethanolamine-HCl pH 8.5 (GE Healthcare, Catalog No. BR-1000-50). This procedure typically yielded 15,000 response units (RU) of coupled antibody. VLA4-Fc or LPAM-1-Fc, prepared as described in Examples 3 and 4, respectively, were bound to antibody-coated sensor chips by injection of 20 μl of ligand solution (20 μg/ml protein in HBS-P-Mn buffer at a flow rate of 10 μl/min). Ligand capture levels were typically 200-300 RU. 2D-VCAM-1 variant polypeptides were diluted in HBS-P-Mn and flowed over ligand-coated sensor chips for 2 min at 30 μl/min, followed by 5 min incubation with in HBS-P-Mn containing no protein at the same flow rate. For 2D-VCAM-1 variant polypeptides having very slow dissociation rates from VLA4-Fc or LPAM-1-Fc, kinetic assays were also conducted using longer dissociation times (e.g., 20 min). Rmax signal levels for 2D-VCAM-1 variant polypeptides ranged from approximately 5-25 RU. Regeneration between cycles was performed by 200 sec incubation with 10 mM glycine buffer (pH 1.7) at 50 μl/min. New chips were subjected to 4-5 cycles of capture/binding/regeneration prior to use in actual experiments. Data from a reference cell containing goat anti-human IgG capture antibody alone was subtracted from data obtained from flow cells containing captured VLA4-Fc or LPAM-1-Fc. Typically, 8 dilutions of 2D-VCAM-1 variant polypeptides ranging from 150 nM to 0.069 nM were analyzed against a blank reference (HBS-P-Mn buffer alone).

[4] = molecular target: T1, human LPAM-1-Fc (alpha4-Fc/beta7-Fc …); experiment: SPR (BIACORE), LPAM-1-Fc captured by anti-human IgG, 1 mM MnCl2, 1:1 Langmuir
Description: as §1

[5] = molecular target: T1, human LPAM-1-Fc (alpha4-Fc/beta7-Fc …); experiment: ELISA, LPAM-1-Fc coated, 1 mM MnCl2; from EC50 values
Description: The relative binding affinities of various 2D-VCAM variant proteins to immobilized LPAM-1-Fc (α4-Fc/β-7-Fc) heterodimer, relative to a control protein (e.g., Q38L-2D-VCAM-1 or human 2D-VCAM-1), were determined using a solid-phase ELISA assay. MAXISORP™ ELISA plates (NUNC) were coated overnight at 4° C. with 50 ul LPAM-1-Fc heterodimer (2 ug/ml in TBS-M, TBS (25 mM TRIS-HCl pH 7.5, 150 mM NaCl with 1 mM MnCl2), washed with TBS-T (TBS with 0.05% Tween-20), blocked with 200 ul 3% milk in TBS-M for 1 hr at room temperature, and washed again with TBS-T. A four-fold dilution series of the purified 2D-VCAM-1 variants to he assayed was made in COSTAR U-bottom plates in TBS-TMC (TBS with 0.05% Tween-20, 1 mM MnCl2 and 1% casein; Sigma) with a starting concentration of 8.2 uM (200 ug/ml). The dilution, series were transferred into the ELISA plate which was incubated at room temperature for 2 h and subsequently washed with TBS-T. Bound 2D-VCAM-1 protein was detected by incubation with 0.5 ug/ml of biotinylated anti-human VCAM antibody (R&D Systems, Catalog No. BAF809) in TBS-TMC for 1 h at room temperature followed by a TBS-T wash and subsequent incubation with 1:2000 dilution of streptavidin-HRP (BD Biosciences, Catalog No. 554066) in TBS-TMC for 30 min at room temperature. […] Typical development times ranged from 5-15 min and development was stopped by addition of 50 ul 2M H₂SO₄ (EM, Catalog No. SX1244-75). […] Fold-improvement in binding was calculated relative to a control protein (Q38L-2D-VCAM-1) assayed on the same plate.

[6] = molecular target: T2, human VLA4-Fc (alpha4-Fc/beta1-Fc …); experiment: ELISA, VLA4-Fc coated, 1 mM MnCl2; from EC50 values
Description: The relative binding affinities of various 2D-VCAM-1 variants to immobilized VLA4-Fc (α4-β1-Fc) heterodimer, relative to a control protein (e.g., Q38L-2D-VCAM-1 or to human 2D-VCAM-1), were deter using a solid-phase ELISA assay. MAXISORP™ ELISA plates (NUNC) were coated overnight at 4° C. with 50 ul VLA4-Fc heterodimer, 2 ug/ml in TBS-M (TBS (25 mM Tris-HCl pH 7.5, 150 mM NaCl) with 1 mM MnCl2), washed with TBS-T (TBS with 0.05% TWEEN-20), blocked with 200 ul 3% milk in TBS-M for 1 h at room temperature, and washed again with TBS-T. A four-fold dilution series of the purified 2D-VCAM variants to be assayed was made in COSTAR U-bottom plates in TBS-TMC (TBS with 0.05% Tween-20, 1 mM MnCl2, and 1% casein; Sigma) with a starting concentration of 8.2 uM (200 ug/ml). The dilution series was transferred into the ELISA plate which was incubated at room temperature for 2 h and subsequently washed with TBS-T. Bound 2D-VCAM protein was detected by incubation with 0.5 ug/ml of biotinylated anti-human VCAM antibody (R&D Systems, Catalog No. BAF809) in TBS-TMC for 1 h at room temperature followed by a TBS-MT (TBS plus 1 mM MnCl2 and 0.02% TWEEN-20) wash and subsequent incubation with 1:2000 dilution of streptavidin-HRP (BD Biosciences, Catalog No. 554066) in TBS-TMC for 30 min at room temperature. […] Typical development times ranged from […] and development was stopped by addition of 50 ul 2M H₂SO₄ (EM, Catalog No. SX1244-75). […] Fold-improvement in binding was calculated relative to a control protein (e.g., Q38L-2D-VCAM-1 or human 2D-VCAM-1) assayed on the same plate.

T1 sequence (chain, as listed by the source limits assumed, chain 1 of 2): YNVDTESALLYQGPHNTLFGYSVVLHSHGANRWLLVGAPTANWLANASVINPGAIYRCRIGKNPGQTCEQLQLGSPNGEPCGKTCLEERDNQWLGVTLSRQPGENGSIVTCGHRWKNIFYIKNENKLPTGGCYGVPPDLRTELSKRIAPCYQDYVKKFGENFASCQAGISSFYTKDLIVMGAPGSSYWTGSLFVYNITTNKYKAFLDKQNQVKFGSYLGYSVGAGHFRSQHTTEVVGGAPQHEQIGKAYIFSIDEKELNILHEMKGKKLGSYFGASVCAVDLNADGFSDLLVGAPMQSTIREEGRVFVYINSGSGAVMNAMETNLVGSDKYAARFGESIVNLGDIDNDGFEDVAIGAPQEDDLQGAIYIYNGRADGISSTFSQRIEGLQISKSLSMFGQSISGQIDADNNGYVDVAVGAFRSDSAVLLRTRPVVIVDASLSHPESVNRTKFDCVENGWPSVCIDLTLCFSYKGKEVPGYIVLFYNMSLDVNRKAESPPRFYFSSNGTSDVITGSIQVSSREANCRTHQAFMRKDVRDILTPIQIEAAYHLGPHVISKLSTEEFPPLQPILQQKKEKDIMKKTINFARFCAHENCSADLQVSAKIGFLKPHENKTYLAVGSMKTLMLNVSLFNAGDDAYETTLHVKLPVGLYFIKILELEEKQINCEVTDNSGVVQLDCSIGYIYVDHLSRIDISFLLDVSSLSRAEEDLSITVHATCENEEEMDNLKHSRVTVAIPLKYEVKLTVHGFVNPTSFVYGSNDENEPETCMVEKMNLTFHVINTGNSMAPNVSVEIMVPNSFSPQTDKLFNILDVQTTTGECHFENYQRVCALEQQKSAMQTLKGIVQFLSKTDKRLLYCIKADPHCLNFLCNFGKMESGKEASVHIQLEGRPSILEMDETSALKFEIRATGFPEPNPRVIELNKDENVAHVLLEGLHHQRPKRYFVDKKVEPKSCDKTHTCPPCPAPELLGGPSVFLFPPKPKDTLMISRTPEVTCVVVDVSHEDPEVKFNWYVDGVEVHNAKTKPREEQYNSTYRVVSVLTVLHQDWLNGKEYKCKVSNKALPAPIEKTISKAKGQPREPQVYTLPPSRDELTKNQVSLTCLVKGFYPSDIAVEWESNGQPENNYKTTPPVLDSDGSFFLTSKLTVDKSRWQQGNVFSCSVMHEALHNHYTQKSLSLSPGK
T1 sequence (chain, as listed by the source limits assumed, chain 2 of 2): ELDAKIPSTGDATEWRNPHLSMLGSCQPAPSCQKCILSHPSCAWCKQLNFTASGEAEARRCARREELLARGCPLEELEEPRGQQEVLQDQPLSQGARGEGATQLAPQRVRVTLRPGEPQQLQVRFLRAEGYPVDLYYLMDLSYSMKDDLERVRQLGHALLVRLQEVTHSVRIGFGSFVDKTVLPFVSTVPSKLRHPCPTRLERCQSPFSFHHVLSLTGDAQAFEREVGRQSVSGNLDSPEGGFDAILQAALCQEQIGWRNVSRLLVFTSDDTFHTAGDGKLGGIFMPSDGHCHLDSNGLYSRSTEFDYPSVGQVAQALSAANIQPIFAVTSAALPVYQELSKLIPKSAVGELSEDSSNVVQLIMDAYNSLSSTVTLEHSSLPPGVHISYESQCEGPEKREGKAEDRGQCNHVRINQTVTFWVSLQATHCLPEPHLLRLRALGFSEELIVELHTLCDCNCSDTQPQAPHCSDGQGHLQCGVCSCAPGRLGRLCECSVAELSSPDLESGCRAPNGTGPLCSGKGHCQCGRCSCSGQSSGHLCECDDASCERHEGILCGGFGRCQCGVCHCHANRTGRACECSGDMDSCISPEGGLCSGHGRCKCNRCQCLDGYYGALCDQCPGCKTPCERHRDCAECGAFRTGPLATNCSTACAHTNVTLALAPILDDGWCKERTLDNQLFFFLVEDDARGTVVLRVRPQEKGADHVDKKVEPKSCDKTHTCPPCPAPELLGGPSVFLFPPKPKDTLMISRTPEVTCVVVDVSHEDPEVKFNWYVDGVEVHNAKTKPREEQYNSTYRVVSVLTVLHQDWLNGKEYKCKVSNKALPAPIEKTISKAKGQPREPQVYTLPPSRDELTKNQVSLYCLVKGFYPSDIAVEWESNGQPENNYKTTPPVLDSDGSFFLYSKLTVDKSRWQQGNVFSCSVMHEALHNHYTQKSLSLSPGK
T2 sequence (chain, as listed by the source limits assumed, form in doubt, chain 1 of 2): as the sequence (chain, as listed by the source limits assumed, chain 1 of 2) above
T2 sequence (chain, as listed by the source limits assumed, form in doubt, chain 2 of 2): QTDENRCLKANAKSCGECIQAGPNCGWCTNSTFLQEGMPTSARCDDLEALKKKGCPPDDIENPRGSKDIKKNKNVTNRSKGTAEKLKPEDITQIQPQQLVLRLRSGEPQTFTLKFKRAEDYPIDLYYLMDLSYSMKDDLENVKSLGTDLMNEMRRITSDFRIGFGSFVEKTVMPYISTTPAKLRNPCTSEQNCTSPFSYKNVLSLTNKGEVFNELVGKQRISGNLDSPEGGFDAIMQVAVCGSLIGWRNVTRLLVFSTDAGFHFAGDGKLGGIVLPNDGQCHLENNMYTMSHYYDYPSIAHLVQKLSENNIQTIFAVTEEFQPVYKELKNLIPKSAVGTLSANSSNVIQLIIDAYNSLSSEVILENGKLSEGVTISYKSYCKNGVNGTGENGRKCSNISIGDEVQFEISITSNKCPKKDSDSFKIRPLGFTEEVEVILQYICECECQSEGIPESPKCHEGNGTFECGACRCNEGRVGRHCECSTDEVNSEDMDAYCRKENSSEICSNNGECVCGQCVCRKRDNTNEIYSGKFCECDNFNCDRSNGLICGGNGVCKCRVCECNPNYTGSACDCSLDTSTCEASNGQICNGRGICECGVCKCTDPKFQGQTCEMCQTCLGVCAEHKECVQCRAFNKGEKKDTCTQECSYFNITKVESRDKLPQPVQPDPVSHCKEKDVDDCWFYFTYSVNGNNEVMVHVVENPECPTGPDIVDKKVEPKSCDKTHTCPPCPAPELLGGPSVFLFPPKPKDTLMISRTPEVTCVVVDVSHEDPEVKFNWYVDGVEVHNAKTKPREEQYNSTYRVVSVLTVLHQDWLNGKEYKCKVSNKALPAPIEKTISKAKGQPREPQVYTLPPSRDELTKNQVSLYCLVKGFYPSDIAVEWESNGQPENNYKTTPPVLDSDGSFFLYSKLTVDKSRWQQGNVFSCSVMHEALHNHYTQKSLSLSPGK

B1: R1R7 (ligand)
2D-VCAM-1 variant polypeptide: MFKIETTPESRYLAQIGDSVSLTCSTTGCESPFFFWRPLLDSPLNGKVTNEGTTSTLTMNPVSFGNEHSYLCTARCESRKLEKGIQVEIYSFPKDPEIHLSGPLEAGKPITVKCSVADVYPFDRLEIDLLKGDHLMKSQEFLEDADRKSLETKSLEVTFTPVIEDIGKVLVCRAKLHIDEMDSVPTVRQAVKELQVYISP
notes: also called 146R1R7
- binding result [1]: binds

B2: R6R7 (ligand)
2D-VCAM-1 variant polypeptide: B1 2D-VCAM-1 variant polypeptide with F33L, R75T
notes: also called 146R6R7
- binding result [1]: binds

B3: R1R6R7 (ligand)
2D-VCAM-1 variant polypeptide: B1 2D-VCAM-1 variant polypeptide with R75T
notes: also called 146R1R6R7
- binding result [1]: binds

B6: R1R3 (ligand)
2D-VCAM-1 variant polypeptide: B1 2D-VCAM-1 variant polypeptide with P38T, K80S
notes: also called 146R1R3
- binding result [1]: binds

B8: R1R5 (ligand)
2D-VCAM-1 variant polypeptide: B1 2D-VCAM-1 variant polypeptide with L40I, K80S
notes: also called 146R1R5
- binding result [1]: binds

B9: human 2D-VCAM-1 (ligand)
chain: FKIETTPESRYLAQIGDSVSLTCSTTGCESPFFSWRTQIDSPLNGKVTNEGTTSTLTMNPVSFGNEHSYLCTATCESRKLEKGIQVEIYSFPKDPEIHLSGPLEAGKPITVKCSVADVYPFDRLEIDLLKGDHLMKSQEFLEDADRKSLETKSLEVTFTPVIEDIGKVLVCRAKLHIDEMDSVPTVRQAVKELQVYISP
notes: also called wild type 2D-VCAM-1; wt-2D-VCAM-1; not shown: His tag
- Kd [3]: 15.2 nM
- binding affinity for VLA4-Fc relative to human 2D-VCAM-1 [3]: 1 fold
- Kd [4]: 248 nM
- binding affinity for LPAM-1-Fc relative to human 2D-VCAM-1 [4]: 1 fold

B11: 2D-VCAM-1 variant Clone 150 (ligand)
chain: B9 chain with F32L, S34F, T37P, I39L, S41A, T74R, K79S
notes: not shown: His tag of the E. coli construct
- Kd [3]: 0.417 nM
- binding affinity for VLA4-Fc relative to human 2D-VCAM-1 [3]: 36 fold
- fold improvement in binding relative to Q38L-2D-VCAM-1 [5]: 5 fold
- fold-improvement in binding relative to Q38L-2D-VCAM-1 [6]: 4 fold
- fold-improvement in binding relative to human 2D-VCAM-1 [6]: 32 fold
- Kd [4]: 31.2 nM
- binding affinity for LPAM-1-Fc relative to human 2D-VCAM-1 [4]: 8 fold

More lines, now with the values ahead:

- Kd [2]: 0.25 nM
- binding result [1]: binds
B4: R3R5R7 (ligand)
2D-VCAM-1 variant polypeptide: B1 2D-VCAM-1 variant polypeptide with F33L, P38T, L40I
notes: also called 146R3R5R7

- binding result [1]: binds
B5: R5R7 (ligand)
2D-VCAM-1 variant polypeptide: B1 2D-VCAM-1 variant polypeptide with F33L, L40I
notes: also called 146R5R7

- binding result [1]: binds
B7: R3R7 (ligand)
2D-VCAM-1 variant polypeptide: B1 2D-VCAM-1 variant polypeptide with F33L, P38T
notes: also called 146R3R7

- fold improvement in binding relative to Q38L-2D-VCAM-1 [5]: 23 fold
- fold-improvement in binding relative to Q38L-2D-VCAM-1 [6]: 11 fold
- fold-improvement in binding relative to human 2D-VCAM-1 [6]: 88 fold
B10: 2D-VCAM-1 variant Clone 147 (ligand)
chain: B9 chain with F32S, S34Y, T37P, Q38L, I39L, T74A, K79R
notes: not shown: His tag

- fold-improvement in binding relative to Q38L-2D-VCAM-1 [6]: 2 fold
- fold-improvement in binding relative to human 2D-VCAM-1 [6]: 16 fold
B12: 2D-VCAM-1 variant Clone 151 (ligand)
chain: B9 chain with F32S, S34Y, T37P, I39L, S41A, T74A, K79R
notes: not shown: His tag

Source: US20120135912A1 (PERSEID THERAPEUTICS, published 2012)
